# Experimental data from the RNAGym collection of RNA variant scans (doi:10.7554/elife.80360).
# B1: Twister Ribozyme (parent)
# chain: AACACUGCCAAUGCCGGUCCCAAGCCCGGAUAAAAGUGGAGGGGGCGG
# Variants of: B1
# Experiment: self-cleavage, relative activity (ratio to wild type); higher = more cleavage; co-transcriptional
row,Variant,self-cleavage
1,GACACUGCCAAUGCCGGUCCCAAGCCCGGAUAACAGUGGAGGGGGCGG [A1G A34C],0.186
2,CACACUGCCAAUACCGGUCCCAAGCCCGGAUAAAAGUGGAGGGGGCGG [A1C G13A],0.12
3,CACACUGCCAAUGCCGGUCCCAAGCCCGGAUAAAAGUGGAGGGGGCAG [A1C G47A],0.168
4,CACACUGCCAAUGCCGGUCCCAAGCCCGGAUAAAAGUGGAGGGGGCUG [A1C G47U],0.228
5,GACACUGCCAAUGCUGGUCCCAAGCCCGGAUAAAAGUGGAGGGGGCGG [A1G C15U],0.405
6,GGCACUGCCAAUGCCGGUCCCAAGCCCGGAUAAAAGUGGAGGGGGCGG [A1G A2G],1.19
7,CACACUGCCAAUGGCGGUCCCAAGCCCGGAUAAAAGUGGAGGGGGCGG [A1C C14G],0.124
8,CACACUGCCAAUGCCGGUCCCAAGCCCGGAUAAAAGUGGAGGCGGCGG [A1C G43C],0.141
9,CACACUGCCAAUGCCGGUCCCAAGCCCGGAUAAAAGUGGAGGAGGCGG [A1C G43A],0.135
10,CACACUGCCAAUGCCAGUCCCAAGCCCGGAUAAAAGUGGAGGGGGCGG [A1C G16A],0.209
11,GACACUGCCAAUGCCGGUCCCAAGCCCGGAUAAAAGUGGCGGGGGCGG [A1G A40C],0.218
12,GACACUGCCAAUGCCGGUCCCAAGCCCGGAUAAAAGUGGUGGGGGCGG [A1G A40U],0.204
13,CACACUGCCAAUGCCGGUCCCAACCCCGGAUAAAAGUGGAGGGGGCGG [A1C G24C],0.168
14,GACACUGCCAAUGCCGGUCCCAAGCCCGGUUAAAAGUGGAGGGGGCGG [A1G A30U],0.436
15,GACACUGCCAAUGCCGGUCCCAAGCCCGGCUAAAAGUGGAGGGGGCGG [A1G A30C],0.198
16,GACACUGCCAAUGCCGGUCCCAAGCGCGGAUAAAAGUGGAGGGGGCGG [A1G C26G],0.334
17,GACACUGCCAAUGCCGGUCCCAAGCACGGAUAAAAGUGGAGGGGGCGG [A1G C26A],0.244
18,GACACUGCCAAUGCCGGUCCCAAGCUCGGAUAAAAGUGGAGGGGGCGG [A1G C26U],0.188
19,CACACUGCCAAUGCCGGUCCCAAGCCCGGAAAAAAGUGGAGGGGGCGG [A1C U31A],0.168
20,CACACUGCCAAUGCCGGUCCCAAGCCCGGAGAAAAGUGGAGGGGGCGG [A1C U31G],0.144
21,CACACUGCCAAAGCCGGUCCCAAGCCCGGAUAAAAGUGGAGGGGGCGG [A1C U12A],0.223
22,CACACUGCCAAGGCCGGUCCCAAGCCCGGAUAAAAGUGGAGGGGGCGG [A1C U12G],0.143
23,CACACUGCCAAUGCCGGUCCCAAGCCCGGAUCAAAGUGGAGGGGGCGG [A1C A32C],0.188
24,CACACUGCCAAUGCCGGUCCCAAGCCCGGAUGAAAGUGGAGGGGGCGG [A1C A32G],0.18
25,CACACUGCCAAUGCCGGUCCCAAGCCCGGAUUAAAGUGGAGGGGGCGG [A1C A32U],0.228
26,GACAGUGCCAAUGCCGGUCCCAAGCCCGGAUAAAAGUGGAGGGGGCGG [A1G C5G],0.172
27,CACACUGCCAAUGCCGGGCCCAAGCCCGGAUAAAAGUGGAGGGGGCGG [A1C U18G],0.136

row,Variant,self-cleavage
1,CACACUGCCAAUGCCGGUCCCGAGCCCGGAUAAAAGUGGAGGGGGCGG [A1C A22G],0.149
2,CACACUGCCAAUGCCGGUCCCUAGCCCGGAUAAAAGUGGAGGGGGCGG [A1C A22U],0.14
3,CACACUGCCAAUGCCGGUCCCAAGCCCGGGUAAAAGUGGAGGGGGCGG [A1C A30G],0.206
4,CACACUGCCAAUGCCGGUGCCAAGCCCGGAUAAAAGUGGAGGGGGCGG [A1C C19G],0.187
5,GACACUGCCAAUGCCGGUCCCAAGCCCGGAUAAAAGUGGAGGGGGCGG [A1G],0.461
6,CACACUGCCAAUGCCGGUCCCAAGCCCGGAUAAAAGUGGAGGGGGCGG [A1C],0.175
7,CACAAUGCCAAUGCCGGUCCCAAGCCCGGAUAAAAGUGGAGGGGGCGG [A1C C5A],0.198
8,CACAGUGCCAAUGCCGGUCCCAAGCCCGGAUAAAAGUGGAGGGGGCGG [A1C C5G],0.227
9,GACACUUCCAAUGCCGGUCCCAAGCCCGGAUAAAAGUGGAGGGGGCGG [A1G G7U],0.137
10,GACACUACCAAUGCCGGUCCCAAGCCCGGAUAAAAGUGGAGGGGGCGG [A1G G7A],0.216
11,GAGACUGCCAAUGCCGGUCCCAAGCCCGGAUAAAAGUGGAGGGGGCGG [A1G C3G],0.274
12,GAUACUGCCAAUGCCGGUCCCAAGCCCGGAUAAAAGUGGAGGGGGCGG [A1G C3U],0.294
13,CAGACUGCCAAUGCCGGUCCCAAGCCCGGAUAAAAGUGGAGGGGGCGG [A1C C3G],0.161
14,CACACUGCCAAUGCCGGUCCCAAGCCCGGAUAAAAGUGGAGGGGGCGA [A1C G48A],0.164
15,CACACUGCCAAUGCCGGUCCCAAGCCCGGAUAAAAGUGGAGGGGGCGC [A1C G48C],0.168
16,GACACUGCCAAUGCCGGUCCCACGCCCGGAUAAAAGUGGAGGGGGCGG [A1G A23C],0.202
17,GACACUGCCAAUGCCGGUCCCAAGCCCGGAUAAAUGUGGAGGGGGCGG [A1G A35U],0.447
18,GACACUGCCAAUGCCGGUCCCAAGCCCGGAUAAAGGUGGAGGGGGCGG [A1G A35G],0.326
19,CACACUGCCAAUGCCGGUCCCAAGCCCAGAUAAAAGUGGAGGGGGCGG [A1C G28A],0.174
20,CACACUGCCAAUGCCGGUCCCAAGCCCUGAUAAAAGUGGAGGGGGCGG [A1C G28U],0.183
21,CACACUGCCAAUGCCGGUCCCAAGCCCCGAUAAAAGUGGAGGGGGCGG [A1C G28C],0.155
22,CACACUGCCAAUGCCGGUCCCAAGCCCGGAUAAAAGUGGAGAGGGCGG [A1C G42A],0.16
23,CACACUGCCAAUGCCGGUCCCAAGGCCGGAUAAAAGUGGAGGGGGCGG [A1C C25G],0.13
24,CACACUGCCAAUGCCGGUCCCAAGUCCGGAUAAAAGUGGAGGGGGCGG [A1C C25U],0.192
25,CACACUGCCAAUGCCGUUCCCAAGCCCGGAUAAAAGUGGAGGGGGCGG [A1C G17U],0.166
26,CACACUGCCAAUGCCGAUCCCAAGCCCGGAUAAAAGUGGAGGGGGCGG [A1C G17A],0.172
27,CACACUGACAAUGCCGGUCCCAAGCCCGGAUAAAAGUGGAGGGGGCGG [A1C C8A],0.196
